Results taken from patent US20070031912A1 (RIKEN, published 2007).

T1: mKO-FM14-C-LZB
T1 construct: Made by in vitro translation; also called fusion of the C-terminal fragment (169th-218th) of mKO-FM14 with leucine zipper basic (LZB)
T1 chain: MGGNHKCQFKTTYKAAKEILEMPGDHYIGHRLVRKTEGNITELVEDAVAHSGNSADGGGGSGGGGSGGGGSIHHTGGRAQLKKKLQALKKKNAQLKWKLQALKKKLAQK

T2: mKO-FM14-C
T2 construct: Fragment without linker and leucine zipper, made by in vitro translation; also called C-terminal fragment from 169th to 218th of mKO-FM14; negative control without leucine zipper
T2 chain: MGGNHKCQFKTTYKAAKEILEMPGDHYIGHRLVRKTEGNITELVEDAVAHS


Assays:
mKO-FM14-C-LZB [1] = biological target: T1, mKO-FM14-C-LZB; experiment: split fluorescent protein complementation in vitro, in vitro translated proteins mixed in PBS at 37° C., fluorescence after 3, 5 and 7 hours
Protocol: (§1) 20 μl of each mKO-FM14-N-LZA and mKO-FM14-C-LZB which was synthesized by in vitro translation was added to 1000 μl of PBS and the total volume was made up to 1040 μl. The mixture was left standing at 37° C. and the fluorescence measurements were carried out every 2 hours (after 3, 5 and 7 hours from the mixing) by a F-2500 (HITACHI). The method of measurement was by the double wavelength excitation and a single wavelength measurement (excitation spectra at 580 nm, green component and orange component were set at 500 nm and 548 nm, respectively) or by the double wavelength excitation and double wavelength measurement (green fluorescence at 509 nm by excitation by 470 nm and orange fluorescence at 560 nm by excitation by 520 nm were obtained) (FIG. 2). Also, as negative controls, 20 μl of each mKO-FM14-N and mKO-FM14-C which was synthesized by in vitro translation and to which no proteins for interaction were fused was added to 1000 μl of PBS and the total volume was made up to 1040 μl. The mixture was left standing at 37° C. and the fluorescence measurements were carried out every 2 hours (after 3, 5 and 7 hours from the mixing) by a F-2500 (HITACHI).

mKO-FM14-C-LZB [2] = biological target: T1, mKO-FM14-C-LZB; experiment: split fluorescent protein complementation in vitro, fluorescence from 1 to 12 hours after mixing
Protocol: as §1, with “The mixture was left standing at 37° C. and the fluorescence measurements were carried out every 2 hours (after 3, 5 and 7 hours from the mixing) by a F-2500 (HITACHI).” left out
By substituting the 70th proline (P) of mKO with various amino acids, variants were obtained in which the ratio of green fluorescence and orange fluorescence was changed according to the passage of time. The variant in which 70th proline (P) was substituted with alanine (A), serine (S), cysteine (C), threonine (T), and valine (V) was designated as mKO-FM5, mKO-FM3, mKO-FM20, mKO-FM24 and mKO-FM14, respectively. Each variant was similarly split into two molecules and similarly fused with LZA and LZB to carry out analyses.

mKO-FM14-C = biological target: T2, mKO-FM14-C; experiment: split fluorescent protein complementation in vitro, 20 µl of each in vitro translated fragment in PBS at 37° C., fluorescence after 3, 5 and 7 hours
Protocol: as §1

| Binder | binding result (mKO-FM14-C-LZB [2]) | further results |
| --- | --- | --- |
| mKO-FM14-N-LZA (other, Made by in vitro translation; also called fusion of the N-terminal fragment (1st-168th) of mKO-FM14 with leucine zipper acidic (LZA)) MVSVIKPEMKMRYYMDGSVNGHEFTIEGEGTGRPYEGHQEMTLRVTMAEGGPMPFAFDLVSHVFCYGHRVFTKYPEEIPDYFKQAFPEGLSWERSLEFEDGGSASVSAHISLRGNTFYHKSKFTGVNFPADGPIMQNQSVDWEPSTEKITASDGVLKGDVTMYLKLEGGNSADGGGGSGGGGSGGGGSIHHTGGRAQLEKELQALEKENAQLEWELQALEKELAQK |  | binding result (mKO-FM14-C-LZB [1]): binds |
| mKO-FM3-N-LZA (other, N-terminal fragment (1-168) of mKO-FM3 (serine at position 70) fused with LZA) MVSVIKPEMKMRYYMDGSVNGHEFTIEGEGTGRPYEGHQEMTLRVTMAEGGPMPFAFDLVSHVFCYGHRSFTKYPEEIPDYFKQAFPEGLSWERSLEFEDGGSASVSAHISLRGNTFYHKSKFTGVNFPADGPIMQNQSVDWEPSTEKITASDGVLKGDVTMYLKLEGGNSADGGGGSGGGGSGGGGSIHHTGGRAQLEKELQALEKENAQLEWELQALEKELAQK | binds |  |
| mKO-FM20-N-LZA (other, N-terminal fragment (1-168) of mKO-FM20 (cysteine at position 70) fused with LZA) MVSVIKPEMKMRYYMDGSVNGHEFTIEGEGTGRPYEGHQEMTLRVTMAEGGPMPFAFDLVSHVFCYGHRCFTKYPEEIPDYFKQAFPEGLSWERSLEFEDGGSASVSAHISLRGNTFYHKSKFTGVNFPADGPIMQNQSVDWEPSTEKITASDGVLKGDVTMYLKLEGGNSADGGGGSGGGGSGGGGSIHHTGGRAQLEKELQALEKENAQLEWELQALEKELAQK | binds |  |
| mKO-FM5-N-LZA (other, N-terminal fragment (1-168) of mKO-FM5 (alanine at position 70) fused with LZA) MVSVIKPEMKMRYYMDGSVNGHEFTIEGEGTGRPYEGHQEMTLRVTMAEGGPMPFAFDLVSHVFCYGHRAFTKYPEEIPDYFKQAFPEGLSWERSLEFEDGGSASVSAHISLRGNTFYHKSKFTGVNFPADGPIMQNQSVDWEPSTEKITASDGVLKGDVTMYLKLEGGNSADGGGGSGGGGSGGGGSIHHTGGRAQLEKELQALEKENAQLEWELQALEKELAQK | binds |  |
| mKO-FM24-N-LZA (other, N-terminal fragment (1-168) of mKO-FM24 (threonine at position 70) fused with LZA) MVSVIKPEMKMRYYMDGSVNGHEFTIEGEGTGRPYEGHQEMTLRVTMAEGGPMPFAFDLVSHVFCYGHRTFTKYPEEIPDYFKQAFPEGLSWERSLEFEDGGSASVSAHISLRGNTFYHKSKFTGVNFPADGPIMQNQSVDWEPSTEKITASDGVLKGDVTMYLKLEGGNSADGGGGSGGGGSGGGGSIHHTGGRAQLEKELQALEKENAQLEWELQALEKELAQK | binds |  |
| mKO-FM14-N (other, Fragment without linker and leucine zipper, made by in vitro translation; also called N-terminal fragment from the 1st to the 168th of mKO-FM14; negative control without leucine zipper) MVSVIKPEMKMRYYMDGSVNGHEFTIEGEGTGRPYEGHQEMTLRVTMAEGGPMPFAFDLVSHVFCYGHRVFTKYPEEIPDYFKQAFPEGLSWERSLEFEDGGSASVSAHISLRGNTFYHKSKFTGVNFPADGPIMQNQSVDWEPSTEKITASDGVLKGDVTMYLKLEG |  | binding result (mKO-FM14-C): no binding |
